Results on 1 molecule are retold here after patent US20170081409A1 (AGENUS, published 2017).

The assay deals with T1, human PD-1 expressed by activated (SEA-stimulated) primary human CD4+ T cells (human, UniProt Q15116 25-288).
T1 construct: whole, on cells; also called programmed cell death protein 1
As to the kind of experiment: flow cytometry on SEA-stimulated human PBMC, CD4+ gate. As for the experimental part:
The anti-PD-1 antibodies AGEN2046w, AGEN2047w, and AGEN2034w were examined for binding to activated peripheral blood mononuclear cells (PBMCs) by flow cytometry. Cryopreserved human PBMCs prepared from unpurified buffy coats (Research Blood Components, Catalog number (Cat#) 002) or cryopreserved cynomolgus PBMCs (Worldwide Primates Inc., customer order) were plated at 10⁵ cells/well in RPMI1640 medium supplemented with Normocin™ (InvivoGen, Cat#ant-nr-1) and 10% heat-inactivated FBS (Gibco, Cat#16140063) in 96-well NUNCLON delta surface plates (NUNC™). The cells were cultured in the presence of 100 ng/ml of Staphylococcus Enterotoxin A (SEA; for human PBMCs) (Toxin Technologies, Cat#at101red) or Staphylococcus Enterotoxin B (SEB; for cynomolgus PBMCs) (Toxin Technology, Cat#bt202red) for 5 days at 37° C., 5% CO₂, and 97% humidity. […] The cells were washed twice with sample buffer and then resuspended in sample buffer and analyzed with a FACS Fortessa cytometer (Becton Dickinson). CD4+ T cells were gated and the mean fluorescence intensity (MFI) was recorded.
The binding of AGEN2034w to activated primary human T cells was measured again in a similar assay. […] Cells were analyzed with a FACS Fortessa cytometer (Becton Dickinson). CD4+ T cells were gated and the mean fluorescence intensity (MFI) of AGEN2034w-positive cells was determined.

T1 sequence (Q15116 25-288): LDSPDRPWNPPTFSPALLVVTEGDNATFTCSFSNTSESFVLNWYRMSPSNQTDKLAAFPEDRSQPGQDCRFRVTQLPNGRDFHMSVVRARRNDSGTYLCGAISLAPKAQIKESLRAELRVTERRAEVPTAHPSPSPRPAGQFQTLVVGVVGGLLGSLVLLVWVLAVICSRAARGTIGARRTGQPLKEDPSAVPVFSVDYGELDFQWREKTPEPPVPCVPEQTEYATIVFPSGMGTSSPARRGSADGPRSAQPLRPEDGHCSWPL

B1: AGEN2046w (antibody, human IgG1, kappa, V domains shown)
VH: QVQLVESGGGVVQPGRSLRLSCAASGFTFSSYGMHWVRQAPGKGLEWVAVIWYDGSNKYYADSVKGRFTISRDNSKNTLYLQMNSLRAEDTAVYYCASNVDYWGQGTLVTVSS
VL: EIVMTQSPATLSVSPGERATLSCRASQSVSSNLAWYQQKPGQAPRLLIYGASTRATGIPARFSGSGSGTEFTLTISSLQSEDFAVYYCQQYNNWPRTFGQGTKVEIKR
In the case of B1, the binding result is listed as “binds”.
